In the nanobody polyreactivity screen of Harvey et al. (2022):

Assay: yeast display, Sf9 membrane polyspecificity reagent, FACS + sequencing; frameworks hold sequencing errors
Procedure, shortened: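 Galactose induction of a Saccharomyces cerevisiae BJ5465 synthetic nanobody display library ran 36–48 hours. The cells were then stained for 1 hour at 4 °C with 10% biotinylated, detergent-solubilized Sf9 membrane reagent, pulled down on streptavidin microbeads and FACS-sorted into low and high (top ~1%) gates on expression and reagent-binding fluorescence. Labels for polyreactivity follow the gate of origin.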

| Sequence | polyreactivity (PSR sort gate) |
| --- | --- |
| QVQLVESGGGLVQAGGSLRLSCAASGFIFSRYAMGWARQAPGKERELVAAIRFSGSMTYYADSVKGRFTISRDTAKNTVYLQMNSLKPEDTAVYYCAAALTYFKRVYYWGQGTQVTVSS | high polyreactivity |
| QVQLVESGGGLVQAGGSLRLSCAASGRTIKYYAMGWYRQAPGKERELVAVITYGGSTDYADSVKGRFTISRDNAKNTVYLQLNSLKPEDTAVYYCAAGFGRHYWGYDSWGQGTQVTVSS | low polyreactivity |
| QVQLVESGGGLVQAGGSLRLSCAASGLTFGDYALGWYRQAPGKDRELVAVISRSGGSTYYADSVKGRFTISRDNAKNTVYLQMNSLKPEDTAVYYCAAEYYSYRYDGDYWGQGTQVTVSS | low polyreactivity |
| QVQLVESRGGLVQAGGSLRLSCAASGFTFSGNARGWYRQAPGKERECVAAISNRSGRTYYADSVKGRFTISRYNAKNTVYLQMNSLKPEDTAVYYCAAESIYTWGIRGDYWGHGTQVTVSS | high polyreactivity |
| QVQLVESGGGLVQAGGSLRLSCAASGRTFVPYAMGWYRQAPGKERELVAAITWSGGRTRYADSVKGRFTISRDNAKNTVFLQMNSLKPEDTAVYYCARYYWLYSSSYDYWGQGTQVTVSS | high polyreactivity |
| QVKLVESGGGLVQAGGSLRLSCAASGRIFDRYAMGWYRQAPGKERELVAAITSRADRTYYADSVKGRFTISRDIAKNTVYLQMNSLKPEDTAVYYCNRRRRHYSYYSTLSYDYWGQGTQVTVSS | high polyreactivity |
| QVQLVESGGGLVQAGGSLRLSCAASGNIFDEYTMGWYRQAPGKERELVAAINSGGSTDYADSVKGRFTISRDNAKNTVYLQMNSLKPEDTAVYYCARDVWPTKIQLQPGYGRGEYWGQGTQVTVSS | low polyreactivity |
| QVQLVESGGGLVQAGGSLRLRCAASGIIFSYYAMGLSRQAPGKERELFAAISSSGSTNYADSVKGRFTISRDNAKNTVYLQMNSLKPEDTAVYYCNAGYGRRVYVYSFKLRYNYWGQGTQVTVSS | high polyreactivity |
| QVQLVESGGGLVQAGGSLRLSCAASGSIFGYYTMGWYRQAPGKERELVAAISQGGARTYYADSVKGRFTISRDNAKNTVYLQMNSLKPEDTAVYYCNAVSPAGYWFDYWGQGTQVTVSS | high polyreactivity |
| QVQLVESGGGLVQAGGSLRISCAASGRILGKYAMGWYRQAPGKESELVAAIRLRGGSTYYADSVKGRFTISRDNEKNSVYLQMNSLKPEDTAVYYCAARYWDRSQAYNDWGQGTQVTVSS | high polyreactivity |
| QVQLVESGGGLVQAGGSLRLSCAASGRIFKSYAMGWYRQAPGKERELVAAISRSGGRTYYADSVKGRFTISRDNAKNTVYLQMNSLKPEDTAVYYCAATTFVAPYLGQGTQVTVSS | low polyreactivity |
| QVQLVESGGGLVQAGGSLRLSCAASGRTSFYNAMGWYRQAPGKERELVAAISYRGTRTYYADSVKGRFTISRDNAKNTVYLQMNSLKPEDTAVYYCAKDSGYYTADDYDYWGQGTQVTVSS | low polyreactivity |
| QVQLVESGGGLVKAGCSLRLSCAASGFTFGRYAMGWYRQAPGKERELVAAISRTGGRTYYADSVKGRFTISRDNAKNTVYLQMNSLKPEDTAVYYCAADKGGTYFNGDSWGQGTQVTVSS | high polyreactivity |
| QVQLVESGVGLVQAGGSLRLSCAASGSTFDTYAMGWYRQAPGKERELVAAITSSGSTYYADSVKGRFTISRDNAKNTVYLQMNSLKPEDTAVYYCAADLSYLYAHNPGDYWGQGTQVTVSS | low polyreactivity |
| QVQLVESGGGLVQAGGSLRLSCAASGRTLGGNAMGWYRQAPGQERELVAAITNSASTYADSVKGRFTISRDNAKNTVYIQMNSLKPEDTAVYYCTAPDPSDQNGDYWGQGTQVTVSS | low polyreactivity |
| QVQLVESGGGLVQAGGSLRLICAASGITYRYAMGWYRQAPGKERELVAAITSSGASTYYADSVKGRFTISRDNAKNTVYLQMNSLKPEDTAVYYCATPLRKVYGGYVYWGQGTQVTVSS | low polyreactivity |
| QVQLVESGGGLVQAGGRLRLTCAASASIFYYYTMGWYRQAPGKERELVAAINSIGGRTYYADSVKGRFTISRDNAKNTVYLQMNSLKQEDNAVYYCNAVLDPGDQDDYDYWGQGTQVTLSS | low polyreactivity |
| QVHLVESGGGLVQAGGSLRLSCAASGRIFGVYAMGWYRQAPGKERELVAVISWSGTSTYYADSVKGRFTISRDYAKNTVYLQMNSLKPEDTAVYYCAADYIGITDYYAIVVYLGYDSWGQGTQVTVSS | high polyreactivity |
| QVQLVESGGGLVQAGGSLRLSCAASGFTFWQYTMGWYRQAPGKERELVAAITSSGGSTYYADSVKGRFTISRDNAKNTVYLQMNSLKPEDTAVYYCAADGWGYSFQWQDHDYWGQGTQVTVSS | low polyreactivity |
| QVQLVESGGGLVQAGGSLRLSWAASGFTFRRNAMGWYRQAPGKEREFVAAITRSGGSTYYADSVKGRFTISRDNAKNTVYVHMNSLKPEDTAVYYCAKERPTDRYPSDEYWGQGTQVTVSS | high polyreactivity |
| QVQLVESGGGLVQAGASLRLSCAASGSIFSSYARGWYRPAPGKERELVAVITNGGSTYYADSVKGRFTISRDYAKNTVYLQMNSLKPEDTAVYYCNARWTKGRKYGYWGQGTQVTVSS | low polyreactivity |
| QVQLVESGGGLVQAGGSLRLSCAASGRTFWINAMGWYRQAPGKERELVAAITRGGRTYADSVKGRFTISRDNAKYTVYLQMNSLKPEDTAVYYCAAESYRLSGHHGYDYWGQCTQVTVSS | high polyreactivity |

| Sequence | polyreactivity (PSR sort gate) |
| --- | --- |
| QVQLVESVGGLVQAGGSLRLSCAASGRTFFKYAMGLYRQAPGKERELVAAITGRGGSTYADSVKGRFTISRDNAKNTVYLQMNSLKPEDTAVYYCAKVYQRGAQYYYYKYDYWGQGTQVTVSS | high polyreactivity |
| QVQLVESGGGLVQAGGSLRLSCAASGNTFYPYAMGWYRQAPGKERELVATIRGSDDSTYYADSVKGRFTISRDNAKNTVYLQMNSLKPEDTAVYDCAADDVVSTFLRGYVRYDYWGQGTQVTVSS | high polyreactivity |
| QVQLVESGGCIVQAGGSLRLSCAASGITFLSNPMGWYSQAPGKERELVAAIDCRGDSTYYADSVKGRFTISRDNAKNTVYLQMNSLKPEDTAVYYCNADISGSGQWDGYDYWGQGTQVSVSS | low polyreactivity |
| QVHLVESGGGLVQAGGSLRLSCAASGLIFGRNAMGWYRQAPGKERELVAAISTRGGSTYYADSVKGRFTISRDNAKNTVYLQMNSLKPEDTAVYYCAARGSYGYDYWGQGPQVTVSS | high polyreactivity |
| QVQLVESGGGLVQVGGSLRLSCAASGSIFAINAMGWYRQAPGKERELVAAIRRRDGNTYYADSVKGRFTISRDNAKNTVYLQMNSLKPEDTAVYYCNTYSRRTSVIAYRYNYWGQGTQVTVSS | high polyreactivity |
| QVQLVESGGGLVQAGGSLRLSCAASGSTFRRYAMGWYRQAPGKERELVAAISSSGDSTYYADSVKGRFTISRDNAKNTVYLQMNSLKPEDTAVYYCATRLRQVYRSQSSGYDYWGQGTQVTVSS | low polyreactivity |
| QVQLVESGGGLVQAGGSLRLSCAASGSTSDINAMGWYRQAPGKERELVAVITFSGGSTNYADSVKGRFTISRDNAKNTVYLQMNSLKPEDTAVYYCSTSGQLYYSRNFDYWGQGTQVTVSS | low polyreactivity |
| QVQLVESGGGLVQAGGSLRLSCAASGRIFGYNAMGWYRQAPGTERELVAAISSSGGGTYYADSVKGRFTISRDNAKNTVYLQMNSLKPEDTAVYYCAAYTRPGRYDYWGQGTQVTVSS | high polyreactivity |
| QEQLVESGGGLVQAGGSLRLSCAASGFTFYFNAMGWYRQAPGKERELVAGITSDGITYYADSVKGRFTISRDNANNTVYLQMNSLKPEDTAVYYCAARKLEWDIKNDYCGQGTQVTVSS | low polyreactivity |
| QVQLVESGGGLVQAGGGLRLSCAASGRIFFYAMGWYRQAPGKQRELVAAISWSGGSTYYADSVKGRFTISRDNAKNTVYLQMNSLKPEDTAVYYCAADYEGWGYDYRGDYWGQGTQLTVSS | low polyreactivity |
| QVQLVESGGGLVQAGASLRLSCAASGSTFYYYAMGWYRQAPGKERELVAAITYRGGSTYYADSVKGRFTISRDNAKNTDFLQMNSLKPEDPAVYYCAADIVTGFISGPGYVYWGQGTQVTVSS | high polyreactivity |
| QVQLVESGGGLVQAGGSLRLSCAASGGTFPSYAMGWYRQAPGKERELVAAISWSGGRTYYADSVKGRFTISRDNAKNTVYLQMNSLKPEDTAVYYCNADDYGYSFNYWGQGTQVTVSS | high polyreactivity |
| QVQLVESGGGLVQAGGSLRLSCAASGSTFTNYAMGWYRQAPGKERELVAAITSGGSTYYADSVKGRFTISRDNAKNTVYLQMNSLKPEDTAVYYCNAVYFSEYDSWGQGTQVTVSS | low polyreactivity |
| QVQLVDSGGGLGQVGGSRRVSCAASGRTFWWYPMGWYRQSPGKERELVAAISRGSTNYADSVKGRFAISRDNAKNTVYLQMNSQKPEDTAVYYCAAYVVWLYGYDYGGQGTQVTVSS | low polyreactivity |
| QVQLVESGGGLVQAGGSLRLSCAASGSTFAFYAMGWYRQAPGKERELVAAISRSGGRTYYADSVKGRFTISRDNAKNTVYLQMNSLKPEDTAVYYCAAVFRSGYLRYYYWGQGTQVTVSS | high polyreactivity |
| QVQLVESGGGLVQAGGSLSLSCAASGSTFGDYAMGWYRQAPGKERELVAAITSSGGRTFYADSVKGRFTISRDNAKNTVYLQMNSLKPEDHAVYYCAAEFTDPPSEYEYWGQGTQVTVSS | low polyreactivity |
| QVQLVESGGGLVQAGGSLRLSCAASGFTFDYNAMGWYRQAPGKDRELVAVISSSGSRTYYADSVKGRFTISRDNAKNTVYLQMNSLKPEDTAVYYCNSGRTYRRLGDYWGQGTQVTVSS | high polyreactivity |
| QVQLVESGGGLVQAGGSLRLSCAASGSTFFVNAMGWYRQAPGKERELVAAISYSGGSTYYADSVKGRFTSSRDNAKNTVYLQMNSLKPEDTAVYYCAKDGGPAQDIGMDYCGQGTQVTVSS | low polyreactivity |
| QVQLVESGGGLVQAGGSLRLSCAASGITFPDYAMGWYRQAPGKERELVATISSSGGNTYYADSVKGRFTISRDNAKNTVYLQMNSLKPEETAVYYCATVSYYCGYDYWGQGTQVTVSS | low polyreactivity |
| QDQLVESGGGLVQAGGSLRLSCAASGIFPYYAMGGYRQAPGTEREFVAAITRSGGSTYYADSVKGRFTISRDNAKKTVYLQMNSLKPEDTAVYYCNKRYGYTGFSPRYDYWGQGTQVTVSS | low polyreactivity |
| QVQLVESGGGLVKAGGSLRLSCAASGFTFTRYAMGWYRQAPGKDRELVAAISSGSRSYYADSVKGRFTISRDNANNTVYLQMNSLKPEDTAVYNCASPDYTYYGHYDSWGQGTQVTVSS | high polyreactivity |
